Reference: US20170260531
pKd: −log10 of the molar value.

Key:
[1] = test system: T1, VEGF-121 (Homo sapiens), P15692-9; experiment: filter; settings: Nap-dU at all P positions; 2'-OMe at C6,G9,C12,G15,A17,G18,Nap22,G28,G29; 0.035 nM in Table 14
T1 sequence: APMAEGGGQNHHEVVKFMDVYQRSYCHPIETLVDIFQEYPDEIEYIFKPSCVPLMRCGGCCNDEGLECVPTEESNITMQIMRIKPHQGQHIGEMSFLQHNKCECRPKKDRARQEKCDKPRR

[2] = target: PDGF-BB (Homo sapiens) (UniProt P01127); experiment: filter; settings: Bn-dU
Chain of UniProt P01127 (P01127 82-190): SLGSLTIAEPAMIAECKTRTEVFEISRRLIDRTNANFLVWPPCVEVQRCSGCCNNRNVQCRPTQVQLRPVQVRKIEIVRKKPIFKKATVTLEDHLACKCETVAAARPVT

CCGTTCAAGTGCTTGTAGGATTTAAATGG [4867-31_192]
pKd [1]: 10.64

TACGACTACGTTACACGCGTTTATAGCG [4149-8_64]
pKd ([2]; C3 at position 1): > 8.00

TTACACTACGTTACACGCGTTTATAGCG [4149-8_68]
pKd ([2]; C3 at position 5): > 8.00

TTACGACACGTTACACGCGTTTATAGCG [4149-8_71]
pKd ([2]; C3 at position 8): > 8.00

TTACGACTACGTTAACGCGTTTATAGCG [4149-8_78]
pKd ([2]; C3 at position 15): > 8.00

TTACGACTACGTTACACGCGTTTATAGC [4149-8_92]
pKd ([2]; C3 at position 29): > 8.00

TTACGACTACGTTACACGCGTTTATAGCG [4149-8_44]
pKd ([2]; 2'-OMe at position 3): > 8.00

TTACGACTACGTTACACGCGTTTATAGCG [4149-8_45]
pKd ([2]; 2'-OMe at position 4): > 8.00

TTACGACTACGTTACACGCGTTTATAGCG [4149-8_46]
pKd ([2]; 2'-OMe at position 5): > 8.00

TTACGACTACGTTACACGCGTTTATAGCG [4149-8_47]
pKd ([2]; 2'-OMe at position 6): > 8.00

TTACGACTACGTTACACGCGTTTATAGCG [4149-8_48]
pKd ([2]; 2'-OMe at position 7): > 8.00

TTACGACTACGTTACACGCGTTTATAGCG [4149-8_49]
pKd ([2]; 2'-OMe at position 9): > 8.00

TTACGACTACGTTACACGCGTTTATAGCG [4149-8_50]
pKd ([2]; 2'-OMe at position 10): > 8.00

TTACGACTACGTTACACGCGTTTATAGCG [4149-8_51]
pKd ([2]; 2'-OMe at position 11): > 8.00

TTACGACTACGTTACACGCGTTTATAGCG [4149-8_52]
pKd ([2]; 2'-OMe at position 14): > 8.00

TTACGACTACGTTACACGCGTTTATAGCG [4149-8_53]
pKd ([2]; 2'-OMe at position 15): > 8.00

TTACGACTACGTTACACGCGTTTATAGCG [4149-8_54]
pKd ([2]; 2'-OMe at position 16): > 8.00

TTACGACTACGTTACACGCGTTTATAGCG [4149-8_55]
pKd ([2]; 2'-OMe at position 17): > 8.00

TTACGACTACGTTACACGCGTTTATAGCG [4149-8_56]
pKd ([2]; 2'-OMe at position 18): > 8.00

TTACGACTACGTTACACGCGTTTATAGCG [4149-8_57]
pKd ([2]; 2'-OMe at position 19): > 8.00

TTACGACTACGTTACACGCGTTTATAGCG [4149-8_58]
pKd ([2]; 2'-OMe at position 20): > 8.00

TTACGACTACGTTACACGCGTTTATAGCG [4149-8_59]
pKd ([2]; 2'-OMe at position 24): > 8.00

TTACGACTACGTTACACGCGTTTATAGCG [4149-8_60]
pKd ([2]; 2'-OMe at position 26): > 8.00

TTACGACTACGTTACACGCGTTTATAGCG [4149-8_61]
pKd ([2]; 2'-OMe at position 27): > 8.00

TTACGACTACGTTACACGCGTTTATAGCG [4149-8_62]
pKd ([2]; 2'-OMe at position 28): > 8.00

TTACGACTACGTTACACGCGTTTATAGCG [4149-8_63]
pKd ([2]; 2'-OMe at position 29): > 8.00

TTACGACTACGTTACACGCGTTTATAGG [4149-8_91]
pKd ([2]; C3 at position 28): > 8.00

TTACGACTACGTTACACGCGTTTTAGCG [4149-8_87]
pKd ([2]; C3 at position 24): > 8.00

TTACGACTACGTTACAGCGTTTATAGCG [4149-8_80]
pKd ([2]; C3 at position 17): > 8.00

TTACGACTACGTTACCGCGTTTATAGCG [4149-8_79]
pKd ([2]; C3 at position 16): > 8.00

TTACGACTAGTTACACGCGTTTATAGCG [4149-8_73]
pKd ([2]; C3 at position 10): > 8.00

TTACGACTCGTTACACGCGTTTATAGCG [4149-8_72]
pKd ([2]; C3 at position 9): > 8.00

TTACGATACGTTACACGCGTTTATAGCG [4149-8_70]
pKd ([2]; C3 at position 7): > 8.00

TTACGCTACGTTACACGCGTTTATAGCG [4149-8_69]
pKd ([2]; C3 at position 6): > 8.00

TTACGTTACCGCGTTTATAGCG [4149-8_426]
pKd ([2]; MBn-dU, Heg, C3, 2'-OMe): < 8.00

TTACGTTACCGTTTATAG [4149-8_405]
pKd ([2]; Heg, C3): < 8.00

TTAGACTACGTTACACGCGTTTATAGCG [4149-8_67]
pKd ([2]; C3 at position 4): > 8.00
